# Assay results: a protein production outcome set (Wang et al. 2014)
# Test: label from the status in PepcDB records
# 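Note: failed if final PepcDB status was selected cloned or expressed and not failed if soluble or beyond.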
row,Sequence,protein production
1,MEVMVFTPKGEIKRLPQGATALDFAYSLHSDLGDHCIGAKVNHKLVPLSYVLNSGDQVEVLSSKSQQPTELEHHHHHH,not failed
2,MEVNRLSALTPPMGWNSWDCYGASVTEEEVLGNAEYMANHLKKYGWEYIVVDIQWYEPTANSSAYNPFAPLCMDEYGRLLPATNRFPSAKNGAGFKPLSDAIHDLGLKFGIHIMRGIPRQAVYENSPVLGSTKTAREIAHTNSICPWNTDMYGVDPTKEGAQSYYNSLFELYAQWGVDFVKVDDIAASRLYDTHLEEIKMIQRAIQACGRPMVLSLSPGPAPIKYAHHFKTNANMWRITDDFWDDWSLLYQMFERCEVWEKHIGTGHWPDCGMLPLGHIGIRSVDGPGGDRWTRFTKDEQLTMMNLWAICHSPLMFGGELRDNDEWTLSLLTNEGILSINQKSVLNRFVYREEDKVAWAANGRNGEAYVALFNLHDQQKTLQFRLDMVGIMETVQLFNVWDRSFLQSLAPSESFQIELKPHQSMMLKLSPDR,not failed
3,MEVPKEQIATLIEHGLYDSAEMLGCFLVSSPTVSAETSPQLKAENLILLGDALFHQREHRRAIHTYKQALHHYTRIPKQSSGISRSSLSLSTRSSVNASSISAINENEVRFKIASSHFALNETKAAIAEMESVKTRSLEMNILMAKLHRNSGYNRGAIAFYKECLRQCPYVLEAVIGLAELGVSAKDIISSFTQTSNRSAKVSLDQIDPTRWLQRYVEAQCCVASHAYKGALELFAELLQRFPNNVHLLTETAKVEAIIGKNDEAIMRFEKVRSIDPYTLTSMDEYAMLLQIKCDYSRLNKLVHDLLSVDHTRAEVFVALSVLWERKDARTALSYAEKSIRVDERHIPGYIMKGNLLLQAKRPEAAAIAFRAAQNLRSDLRSYQGLVHSYLAFGKTKEALYTAREAMNAMPQSAKALKLVGDVHAFTSSGREKAKKFYESGLRLEPGYLGAVLALAELHLMEGRNGDAVSLLERYLKDYADDSLHVKLAQVFAATNMLQDSLSHFQAALRINPQNEAAKKGLDRLEKQMKGIDPDATDENDENDVEDVDGDTEEAELM,failed
4,MEVSDGSSQVLNSMKHVASLRADEDPDETSLLLSSTLLDLVVFRLVLVLYCVRVLMLDQYQETIALSQEVMMEDGRREFNVPMNCPIPVVKRRMKAPKHVDEDLFKIFPQATTYLRQIQKGGGSGCFEFIRGEVCTKDLSQNNTFYFIF,failed
5,MEYEHITHSFEPVYDENSRILILGTLPSVASRENNFYYGHKQNRFWKLLAYLLDEPVPETIDEKKYMLFKNHIAIWDVIQSCDIKGSSDSSIKNVEPTDIRKILETADIKQVYANGNKAGALYKKYQLPLTGMEAVTLPSTSPANAAWSFERLCEAWTRILANL,failed
6,MEYETILKLFSLVYIIIMMTIDFWIFGLILRREYVRVKGLLIILSIVLMMGLESLALAQLNVLLFISGMLLVLIPLFISFLIKDHSINVNRNWKYGLLLSSVIVFDELAMGYLYGNYFTPLPNPLLTAINNPAYGAMMLGDAIFFLYILRRRSIMEFAITTFAISMAFMPSLYLMDRMLEFIMSILTSLFMIVNIVLLYLTEMRMLTFQGQLVAISLSLFNLLMMLGLTFFASLSNLYFLTLSMIASMVWYFFLIFYNVPAKKISPKPFLFLVLVNLTELAMGFGESVLGFNLTNSLFVNTMNCEMMIGSHMMRSPFNNPFWWLFPINPLTMITMTIMKYNLLGKLVMVPFMTIMTTTMAPFYVIMMGAEMSYLVYERFKKVKTRYLKAWTLGILTGIPIFVVLIPYYTNYYIFGMSGMIFPVTLAPFVISLVVIALFSTLFGRGVYCNLVCMSAHMWSNVFYEQFSAKKNSKFWDYLRWIFLVPLIIAFYLFVMMGLGKIKLPIDPLDFYGMFTLNYIWWFFYFLTPIFGIYSCARQGWCGFGTFNGIFNKVLFKIRAKDVNTCKECVSKECDTSCPVKIPISNDILKKGYSNRISCIVCARCVDACDNVEIVNVVTILKNRESKSF,failed
7,MEYFLENPDHLWYLIAGISFVIELSIMGLSGPLLFFAIASLTTGILVTVGFVEGWQSEIFTVGVLTAIIAAILWKPLKSLQNSKDTTDNSSDMVGLTVLASTEINVSSGSIRYSGIDWQARLAEEANGESISAQSQCVIVAITGNIMLVKSL,failed
8,MEYHLQTPLKFEDIEKLNAGDIVYISGEILTARDEAHARILEMEERGEELPFSLEGAVIYHCGPLMQQTESGWKVISAGPTTSGRMSKMTPPLLKTHKVRAIIGKGGMKNVADSLKSCCVYLAYTGGCAALAAELIKDVKTVHWPDLGMPEAVWILRVEKFGPLIVGIDAKGKDIFSEVREKAEKALEELQK,failed
9,MEYKPMPYPIIDSHCHLDFPKFNPDREEAIQRARKAGVVGMVNSGISLKGNRISLELAEKNEDIHAALGLSPDIGREGSDKDINAILAQIEANAGKAVAIGEAGLDFQDCKTDEERRRQTASFKKVIELAKNLEKPLVVHARMAEAEVLELARDVDTVIYHCYSGSVETMKEIVDAGYYISLATLVCFSEHHQTLAAEVPPENLLLETDSPFLSPRRGRNEPAFIVDSIPVVAEYKEMEPAEIAKFATENARRVFKILEHHHHHH,failed
10,MEYLGPVLWSPAGKPPTWWDSLPTDRPIVYATLGTSGGRNLLQLVLNALAELPVTVIAATAGRSDLKTVPANAFVADYLPGEAAAARSAVVVCNGGSLTTQQALVAGVPVIGVAGNLDQHLNMEAVERAGAGVLLRTERLKSQRVAGAVMQVISRSEYRQAAARLADAFGRLEHHHHHH,failed
11,MEYQHWLREAISQLQASESPRRDAEILLEHVTGRGRTFILAFGETQLTDEQCQQLDALLTRRRDGEPIAHLTGVREFWSLPLFVSPATLIPRPDTECLVEQALARLPEQPCRILDLGTGTGAIALALARERPDCEITAVDRMPDAVALAQRNAQHLAIKNIHILQSDWFSALAGQQFAMIVSNPPYIDEQDPHLQQGDVRFEPLTALVAADSGMADIVHIIEQSRNALVSGGFLLLEHGWQQGEAVRQAFILAGYHDVETCRDYGDNERVTLGRYYQ,failed
12,MEYQLQQLASLTLVGIKETYENGRQAQQHIAGFWQRCYQEGVIADLQLKNNGDLAGILGLCIPELDGKMSYMIAVTGDNSADIAKYDVITLASSKYMVFEAQGAVPKAVQQKMEEVHHYIHQYQANTVKSAPFFELYQDGDTTSEKYITEIWMPVKG,not failed
13,MEYSTDLGRRVLLTLAGVALLLVVGLVLSQFLPTLVFTVFLYYASRPIYRRLGRLPLPKSFLKRAVPYQKQVHAAATIFFFLLPFVVLVGYTLVLVIPELQSFFGEGGLGAAYLSQFQELQGGSPPGPLADLGFSEVLAMGPAEVIDLLRNATVQSWLGRVSDTLIGSLSLLTSLLLRVFIMFAGTYYLLTDGPRLVGWFLDTFDGSGVLREYAAAVDEELSSILFGNILNALVTGVIGIFVFSLYNLVAPGSVQIPFAPLVGALTGIGSLIPVVGMKIVYLPVAVLLAVSAVVTGQTAALAWVALFLVVTLVVVDTIPDFLIRPYVSGDLTHVGLLMFAYILGPIAFGFYGIFLGPMLLVLAAQFFRIIVPYIITGTVETTQTSLSEYDSGES,failed
14,MEYTTLAVLAGLPEDPHGAVGLPIYAVAAYGFKTLEEGQERFATGEGYVYARQKDPTAKALEERLKALEGALEAVVLASGQAATFAALLALLRPGDEVVAAKGLFGQTIGLFGQVLSLMGVTVRYVDPEPEAVREALSAKTRAVFVETVANPALLVPDLEALATLAEEAGVALVVDNTFGAAGALCRPLAWGAHVVVESLTKWASGHGSVLGGAVLSRETELWRNYPQFLQPDLKGQIPWEALRARCFPERVRTLGLSLCGMALSPFNAYLLFQGLETVALRVARMSETARFLAERLQGHPKVKALRYPGLPEDPAHRNARKYLASGGPILTLDLGDLERASRFLGAIRLLKAANLGDARTLLVHPWTTTHSRLKEEARLQAGVTPGLVRVSVGLEDPLDLLALFEEALEAV,not failed
15,MEYVNPEGLRLDGRRFNEMRQIVAEVGVVSKADGSAVFEMGNTKVIAAVYGPREIQNKSQQKKNDHAVVLCEYSMAQFSTGDRRRQKFDRRSTELSLVIRQTMEACILTELMPHSQIDIFLQVLQADGGTRSACINAATLALADAGIPMRDLAVSCSAGYLNSTPLLDLNYVEDSAGGADVTVGILPKLDKVSLLQMDAKLPMETFETVFALASEGCKAIAERIREVLQENTKQLEYRRAA,failed
16,MEYVYAALILNEADEEINEDNLTDVLDAAGVDVEESRVKALVAALEDVDIEEAVDQAAAAPVPASGGAAAPAEGDADEADEADEEAEEEAADDGGDDDDDEDDEASGEGLGELFGLEHHHHHH,not failed
17,MFALISKINPGAWWLIFAIATDVLSTFYSAKGNGLVNKTAQGIALVLYIISFACAAIALKYMQAGILYVLWSGVGVLATAFLAKIFLGQNIDVAGWIGIGFITVGLMIIAQYY,failed
18,MFALPQAGDRRGEIIKVLLSNGWDYMNGLLTLGKVGEPQIPTPEVLTKILVELGPFYIKLGQLLSTRPDLLPPRYINALTALQSNVPPLPWSAIEDLLQREFPQPLGETFQEIESEPIAAGSIGQIHRAVLQSGETVAIKVKRPGIDVIVEQDSLLIKDVAELLALTEFGQNYDIVKLADEFTQTVKAELNFDTEAAYTNNLRTNLAKTTWFDPNQLVIPKVYWELTNQKFLVLEWLDGVPILTADLTQPPSDKDIAEKKKEITTLLFRAFFQQLYVDGFFHADPHPGNIFYLADGRLALIDCGMVGRLDPRTRQLLTEMLLAIVDLDAKRCAQLTVELSESVGRVNFQRLEVDYERMLRKYYDLSLSEFNFSEVVYEFLRIARVNKLKVPACLGLYAKCLANLEGAG,failed
19,MFAQLVMGPAGSGKSTYCHALQQHGEIVGQLVHVVNLDPAAERFEYKPVADIRDLITVTDVAEELSLGPNGSLVYCMEYLLEDQDWLEQVLSETAEDDYLVFDMPGQIELYTHFECVRQFVYVLQSQFSMRVCSIFLLDAQFLADASKFFAGSLTAMAAMLHLGLPHLNVLSKADLLRHRIEHRDNTLEPLSSDAEAPNSDEALDEFLERFLNPDIQSLVSELSEQMDTRYRALNERIGALLEDYAIVQFVPYSATDEDSIGELLLRANLLLQYDDDRDVRIHPELD,failed
20,MFASLVIPVSAQANSGEMPQEQQLAVKYMDALTEHDYKTLITFYNRDSIFFDKTANRKYTGGRFIIDFLERAHQGVLEYDFNIEHMYNAGSLVVMIGNYHFKGPGEQFGKPGKIIDVAIPAVTSLKLDMLNRRVTEHVDLIDYQTMSDQLAMQ,not failed
21,MFCTLAGYRWLNSGSLLRRLSQRAVRRLPTAPLCHLHNGATESAASNGALRIVDEKVAYRRYATVFERTVQYPDGRHVTYDILGQPAVQSASVLVFPFDTQSKTCYVIREYCPGPNRVLYGFPAGMVETKHESLEAAARAELSEEAHLRCAQLIDLTAQAAVWERSFEVPNTASDAENCLRGFFADKYSRNVCKMYLALNPEPDGHPGSMDAEELIEQVGAVRVPQLEAWLWSGQMTMPHMLLAMCALTYLRQRGMLT,failed
22,MFDRLKNGEKIAPIVKEVESQITEVHKRADEVIESNQFRVLESFGKHKISDSHFIPTTGYGYDDIGRDTLEKVYADVFGAEAGLVRPQIISGTHAISTALFGILRPGDELLYITGKPYDTLEEIVGVRGKGVGSFKEYNIGYNAVPLTEGGLVDFEAVAAAIHSNTKMIGIQRSKGYATRPSFTISQIKEMIAFVKEIKPDVVVFVDNCYGEFIEEQEPCHVGADLMAGSLIKNPGGGIVKTGGYIVGKEQYVEACAYRLTSPGIGAEAGASLYSLQEMYQGFFLAPHVAGQALKGAIFTAAFLEKLGMNTSPAWNAPRTDLIQSVQFDDKDRMIAFCQAIQYASPINSHFTPYANYMPGYEDDVIMAAGTFIQGASIELSADGPIRPPYVAYVQGGLTYSHVKIAICSAIDELIEKNLLTISLEHHHHHH,not failed
23,MFEASTFLLFMGSAIMLIIIPGPDLVFTITQGMTNGRKAGVITAMGLSLGNIVHTLAAVLGLSLIIQTSVVVFTIFKLAGAMYLFYLAYKALKHRKEEIRVNSEKTNDLKGLFLRGLIMNVLNPKVAIFYLTFLPQFVNYQSANISLQLCILGLIFIIMTAIIFSIFGYFSGTFRDRLLKNSRFNEYMNIAATIIFIGLGLKLMTTQL,failed
